1 substance from US5668109A, “Peptides for inhibiting pepsin release” (Societe de Conseils de Recherches et D'Applications …, priority 1994, dated 1997) can be followed below.

Square brackets hold non-standard residues; d marks the D form. Ends that are not written are not given here.

For the data set the following is noted: in vivo.

For “Pro--Val--Thr--Lys--Pro--Gln-D-Ala--NH2 (PVTKPQ[dA]-NH2; N-terminus assumed; SMILES CC(C)[C@H](NC(=O)[C@@H]1CCCN1)C(=O)N[C@H](C(=O)N[C@@H](CCCCN)C(=O)N1CCC[C@H]1C(=O)N[C@@H](CCC(N)=O)C(=O)N[C@H](C)C(N)=O)[C@@H](C)O) [P^D1]”, the “quantity found in the organism” value was “greater than 10%”.
